From patent US20230190867A1, “METHODS OF TREATING NASH AND COMPOSITIONS THEREFORE” (BIOINCEPT, LLC, priority 2018, published 2023)

Key:
[1] = target: 78 kDa glucose-regulated protein (Homo sapiens) (UniProt P11021); assay: PIF-agarose affinity extraction of normal human liver lysate 1, LC-MS/MS
[2] = target: Alcohol dehydrogenase 1A (Homo sapiens) (UniProt P07327); assay: as above
[3] = target: Alcohol dehydrogenase 1B (Homo sapiens) (UniProt P00325); assay: as above
[4] = target: Alcohol dehydrogenase 4 (Homo sapiens) (UniProt P08319); assay: as above
[5] = target: Calmodulin (Homo sapiens) (UniProt P0DP23); assay: as above
[6] = target: Calreticulin (Homo sapiens) (UniProt P27797); assay: as above
[7] = target: Delta-aminolevulinic acid dehydratase (Homo sapiens) (UniProt P13716); assay: as above
[8] = target: Enoyl-CoA hydratase domain-containing protein 2, mitochondrial (Homo sapiens) (UniProt Q86YB7); assay: as above
[9] = target: Hepatoma-derived growth factor (Homo sapiens) (UniProt P51858); assay: as above
[10] = target: Peroxiredoxin-1 (Homo sapiens) (UniProt Q06830); assay: as above
[11] = target: Transitional endoplasmic reticulum ATPase (Homo sapiens) (UniProt P55072); assay: as above
Vimentin (Homo sapiens) [12] = target: Vimentin (Homo sapiens) (UniProt P08670); assay: as above
[13] = target: 14-3-3 protein epsilon (Homo sapiens) (UniProt P62258); assay: PIF-agarose affinity extraction of normal human liver lysate 2, LC-MS/MS
[14] = target: 78 kDa glucose-regulated protein (Homo sapiens) (UniProt P11021); assay: as above
[15] = target: Activated RNA polymerase II transcriptional coactivator p15 (Homo sapiens) (UniProt P53999); assay: as above
[16] = target: Alcohol dehydrogenase 1A (Homo sapiens) (UniProt P07327); assay: as above
[17] = target: Alcohol dehydrogenase 1B (Homo sapiens) (UniProt P00325); assay: as above
[18] = target: Alcohol dehydrogenase 4 (Homo sapiens) (UniProt P08319); assay: as above
[19] = target: Alpha-actinin-4 (Homo sapiens) (UniProt O43707); assay: as above
[20] = target: Calmodulin (Homo sapiens) (UniProt P0DP23); assay: as above
[21] = target: Calreticulin (Homo sapiens) (UniProt P27797); assay: as above
[22] = target: Cytochrome b-c1 complex subunit 6, mitochondrial (Homo sapiens) (UniProt P07919); assay: as above
[23] = target: Cytochrome b5 (Homo sapiens) (UniProt P00167); assay: as above
[24] = target: Cytosolic 10-formyltetrahydrofolate dehydrogenase (Homo sapiens) (UniProt O75891); assay: as above
[25] = target: Delta-aminolevulinic acid dehydratase (Homo sapiens) (UniProt P13716); assay: as above
[26] = target: Endoplasmin (Homo sapiens) (UniProt P14625); assay: as above
[27] = target: Enoyl-CoA hydratase domain-containing protein 2, mitochondrial (Homo sapiens) (UniProt Q86YB7); assay: as above
[28] = target: Hepatoma-derived growth factor (Homo sapiens) (UniProt P51858); assay: as above
[29] = target: Membrane-associated progesterone receptor component 1 (Homo sapiens) (UniProt O00264); assay: as above
[30] = target: Parathymosin (Homo sapiens) (UniProt P20962); assay: as above
[31] = target: Peroxiredoxin-1 (Homo sapiens) (UniProt Q06830); assay: as above
[32] = target: Protein disulfide-isomerase (Homo sapiens) (UniProt P07237); assay: as above
[33] = target: Protein disulfide-isomerase A3 (Homo sapiens) (UniProt P30101); assay: as above
[34] = target: Protein disulfide-isomerase A4 (Homo sapiens) (UniProt P13667); assay: as above
[35] = target: Transitional endoplasmic reticulum ATPase (Homo sapiens) (UniProt P55072); assay: as above
[36] = target: Tropomyosin alpha-4 chain (Homo sapiens) (UniProt P67936); assay: as above
Vimentin (Homo sapiens) [37] = target: Vimentin (Homo sapiens) (UniProt P08670); assay: as above

Chain of Alcohol dehydrogenase 1B (Homo sapiens) (P00325 2-375 limits assumed): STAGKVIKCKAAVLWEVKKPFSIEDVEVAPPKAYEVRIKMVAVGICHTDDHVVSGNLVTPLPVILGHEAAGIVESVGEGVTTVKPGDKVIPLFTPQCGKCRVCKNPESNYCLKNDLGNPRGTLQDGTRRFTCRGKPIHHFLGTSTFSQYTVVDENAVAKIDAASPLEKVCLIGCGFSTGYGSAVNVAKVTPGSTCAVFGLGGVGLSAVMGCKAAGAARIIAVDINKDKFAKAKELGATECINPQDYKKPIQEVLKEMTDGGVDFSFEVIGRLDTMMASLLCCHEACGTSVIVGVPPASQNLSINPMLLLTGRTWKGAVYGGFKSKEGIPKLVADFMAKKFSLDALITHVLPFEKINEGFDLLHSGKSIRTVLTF
Chain of Alcohol dehydrogenase 1A (Homo sapiens) (P07327 2-375 limits assumed): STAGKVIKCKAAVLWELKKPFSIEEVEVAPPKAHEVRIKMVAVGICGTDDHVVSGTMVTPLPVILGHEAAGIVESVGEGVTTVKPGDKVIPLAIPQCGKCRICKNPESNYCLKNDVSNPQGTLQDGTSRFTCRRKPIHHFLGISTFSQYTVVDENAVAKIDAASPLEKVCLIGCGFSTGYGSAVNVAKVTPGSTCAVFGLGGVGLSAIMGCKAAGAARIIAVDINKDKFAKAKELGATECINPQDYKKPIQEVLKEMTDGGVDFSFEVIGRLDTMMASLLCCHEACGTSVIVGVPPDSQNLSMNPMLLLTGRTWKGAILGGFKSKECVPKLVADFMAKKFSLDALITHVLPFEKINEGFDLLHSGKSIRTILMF
Chain of Alcohol dehydrogenase 4 (Homo sapiens) (P08319 whole entry): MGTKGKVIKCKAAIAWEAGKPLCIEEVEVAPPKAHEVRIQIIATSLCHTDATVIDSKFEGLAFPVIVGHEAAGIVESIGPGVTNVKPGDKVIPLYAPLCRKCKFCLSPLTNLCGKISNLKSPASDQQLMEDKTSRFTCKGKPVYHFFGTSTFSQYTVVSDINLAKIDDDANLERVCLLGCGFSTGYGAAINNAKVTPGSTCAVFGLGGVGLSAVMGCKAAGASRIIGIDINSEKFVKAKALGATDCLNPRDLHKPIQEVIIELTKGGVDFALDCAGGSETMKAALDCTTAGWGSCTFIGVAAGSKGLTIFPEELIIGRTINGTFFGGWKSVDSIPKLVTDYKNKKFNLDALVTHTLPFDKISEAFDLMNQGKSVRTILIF
Chain of Calreticulin (Homo sapiens) (P27797 18-417 limits assumed): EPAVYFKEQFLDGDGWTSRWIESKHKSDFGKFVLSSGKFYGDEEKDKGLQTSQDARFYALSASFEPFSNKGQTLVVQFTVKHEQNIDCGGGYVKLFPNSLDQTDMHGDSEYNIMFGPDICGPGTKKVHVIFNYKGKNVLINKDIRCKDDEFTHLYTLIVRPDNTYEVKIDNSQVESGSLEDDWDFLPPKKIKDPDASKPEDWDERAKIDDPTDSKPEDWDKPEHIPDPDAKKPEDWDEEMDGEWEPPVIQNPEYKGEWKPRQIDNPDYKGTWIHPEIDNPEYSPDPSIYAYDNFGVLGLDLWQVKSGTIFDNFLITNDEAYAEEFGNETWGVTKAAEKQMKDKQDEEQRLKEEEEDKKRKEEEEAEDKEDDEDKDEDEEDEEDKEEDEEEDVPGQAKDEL
Chain of Hepatoma-derived growth factor (Homo sapiens) (P51858 whole entry): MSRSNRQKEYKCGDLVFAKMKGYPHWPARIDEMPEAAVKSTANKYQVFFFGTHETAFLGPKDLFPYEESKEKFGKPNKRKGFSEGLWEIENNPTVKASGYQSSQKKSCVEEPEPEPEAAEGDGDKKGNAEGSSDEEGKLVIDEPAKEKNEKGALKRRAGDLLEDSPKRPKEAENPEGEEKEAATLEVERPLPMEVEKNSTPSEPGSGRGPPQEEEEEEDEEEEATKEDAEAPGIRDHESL
Chain of Vimentin (Homo sapiens) (P08670 2-466 limits assumed): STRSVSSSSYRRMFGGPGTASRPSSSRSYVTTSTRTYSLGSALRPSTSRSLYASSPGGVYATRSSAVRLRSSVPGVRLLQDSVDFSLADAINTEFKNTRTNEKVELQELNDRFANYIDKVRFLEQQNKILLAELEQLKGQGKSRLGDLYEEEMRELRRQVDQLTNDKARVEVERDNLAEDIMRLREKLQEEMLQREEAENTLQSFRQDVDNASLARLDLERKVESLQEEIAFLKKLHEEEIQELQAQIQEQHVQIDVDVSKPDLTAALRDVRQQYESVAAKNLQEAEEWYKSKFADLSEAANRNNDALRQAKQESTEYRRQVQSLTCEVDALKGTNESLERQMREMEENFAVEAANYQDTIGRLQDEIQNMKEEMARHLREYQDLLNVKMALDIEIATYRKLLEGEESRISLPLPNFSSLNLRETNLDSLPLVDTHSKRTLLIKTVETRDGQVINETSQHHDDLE
Chain of Delta-aminolevulinic acid dehydratase (Homo sapiens) (P13716 whole entry, stated change not applied, the tested form may be a part): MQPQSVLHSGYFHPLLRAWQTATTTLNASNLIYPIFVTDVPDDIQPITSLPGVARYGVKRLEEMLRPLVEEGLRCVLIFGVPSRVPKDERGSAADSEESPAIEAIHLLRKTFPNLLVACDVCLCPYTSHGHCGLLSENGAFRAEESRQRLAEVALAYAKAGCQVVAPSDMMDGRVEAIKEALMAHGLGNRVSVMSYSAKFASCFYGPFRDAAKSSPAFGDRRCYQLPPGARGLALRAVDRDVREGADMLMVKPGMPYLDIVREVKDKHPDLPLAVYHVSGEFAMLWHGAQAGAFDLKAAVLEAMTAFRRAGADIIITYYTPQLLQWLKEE
Chain of Transitional endoplasmic reticulum ATPase (Homo sapiens) (P55072 2-806 limits assumed): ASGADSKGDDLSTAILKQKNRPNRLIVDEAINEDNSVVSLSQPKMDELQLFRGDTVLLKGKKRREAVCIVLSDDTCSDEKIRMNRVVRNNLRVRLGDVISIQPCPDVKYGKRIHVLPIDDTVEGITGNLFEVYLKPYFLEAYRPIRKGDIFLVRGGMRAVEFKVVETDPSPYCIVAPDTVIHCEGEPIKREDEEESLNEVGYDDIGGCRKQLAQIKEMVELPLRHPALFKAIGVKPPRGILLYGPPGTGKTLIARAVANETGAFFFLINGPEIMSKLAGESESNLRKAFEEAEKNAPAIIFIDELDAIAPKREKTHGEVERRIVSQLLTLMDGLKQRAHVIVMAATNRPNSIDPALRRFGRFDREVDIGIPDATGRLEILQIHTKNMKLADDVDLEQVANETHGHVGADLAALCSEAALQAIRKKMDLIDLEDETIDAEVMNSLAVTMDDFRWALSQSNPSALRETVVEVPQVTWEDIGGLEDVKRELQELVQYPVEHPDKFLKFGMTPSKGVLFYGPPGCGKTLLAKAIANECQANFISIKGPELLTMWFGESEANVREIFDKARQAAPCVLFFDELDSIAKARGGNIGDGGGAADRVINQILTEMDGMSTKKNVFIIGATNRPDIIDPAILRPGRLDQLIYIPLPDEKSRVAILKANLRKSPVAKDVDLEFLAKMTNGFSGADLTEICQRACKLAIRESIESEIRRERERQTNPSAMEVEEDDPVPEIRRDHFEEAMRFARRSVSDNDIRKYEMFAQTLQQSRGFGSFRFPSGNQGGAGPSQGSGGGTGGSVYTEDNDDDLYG
Chain of 78 kDa glucose-regulated protein (Homo sapiens) (P11021 19-654 limits assumed): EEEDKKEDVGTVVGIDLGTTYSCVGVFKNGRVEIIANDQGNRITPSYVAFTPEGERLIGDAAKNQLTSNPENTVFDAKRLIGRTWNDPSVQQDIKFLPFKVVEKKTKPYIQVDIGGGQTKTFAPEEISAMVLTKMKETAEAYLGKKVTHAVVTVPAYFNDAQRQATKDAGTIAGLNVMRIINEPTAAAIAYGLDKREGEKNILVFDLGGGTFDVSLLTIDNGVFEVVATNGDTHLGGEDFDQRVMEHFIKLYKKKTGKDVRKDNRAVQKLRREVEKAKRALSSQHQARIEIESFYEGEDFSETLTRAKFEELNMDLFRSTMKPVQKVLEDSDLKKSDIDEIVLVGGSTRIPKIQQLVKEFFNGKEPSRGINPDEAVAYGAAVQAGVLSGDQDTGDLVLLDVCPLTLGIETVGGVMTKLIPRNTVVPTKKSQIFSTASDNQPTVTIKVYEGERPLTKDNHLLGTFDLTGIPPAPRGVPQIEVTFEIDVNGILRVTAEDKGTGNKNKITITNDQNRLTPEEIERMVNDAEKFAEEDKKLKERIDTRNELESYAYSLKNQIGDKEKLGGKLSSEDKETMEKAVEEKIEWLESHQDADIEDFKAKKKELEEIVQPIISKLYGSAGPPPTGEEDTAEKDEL
Chain of Enoyl-CoA hydratase domain-containing protein 2, mitochondrial (Homo sapiens) (Q86YB7 36-292 limits assumed): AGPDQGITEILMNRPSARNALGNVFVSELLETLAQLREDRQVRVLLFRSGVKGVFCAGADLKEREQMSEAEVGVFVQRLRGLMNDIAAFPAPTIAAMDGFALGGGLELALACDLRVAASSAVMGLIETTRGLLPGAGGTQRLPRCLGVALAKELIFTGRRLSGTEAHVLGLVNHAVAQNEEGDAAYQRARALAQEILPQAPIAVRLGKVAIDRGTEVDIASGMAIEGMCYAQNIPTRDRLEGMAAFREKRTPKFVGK
Chain of Peroxiredoxin-1 (Homo sapiens) (Q06830 2-199 limits assumed): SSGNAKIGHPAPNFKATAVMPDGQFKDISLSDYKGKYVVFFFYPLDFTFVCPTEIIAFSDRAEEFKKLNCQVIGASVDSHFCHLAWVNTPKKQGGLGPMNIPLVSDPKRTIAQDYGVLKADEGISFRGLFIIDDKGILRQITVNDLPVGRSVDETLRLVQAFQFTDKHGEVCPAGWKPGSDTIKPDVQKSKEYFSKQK
Chain of Membrane-associated progesterone receptor component 1 (Homo sapiens) (O00264 whole entry): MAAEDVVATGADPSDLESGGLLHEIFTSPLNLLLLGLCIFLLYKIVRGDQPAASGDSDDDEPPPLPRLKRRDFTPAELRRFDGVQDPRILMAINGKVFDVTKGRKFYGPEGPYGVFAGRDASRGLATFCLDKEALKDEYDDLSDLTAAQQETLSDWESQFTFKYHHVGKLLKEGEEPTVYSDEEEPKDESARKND
Chain of Cytochrome b-c1 complex subunit 6, mitochondrial (Homo sapiens) (P07919 14-91 limits assumed, one chain of several): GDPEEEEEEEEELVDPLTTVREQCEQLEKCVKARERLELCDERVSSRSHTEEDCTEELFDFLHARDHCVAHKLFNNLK
Chain of Cytochrome b5 (Homo sapiens) (P00167 2-134 limits assumed): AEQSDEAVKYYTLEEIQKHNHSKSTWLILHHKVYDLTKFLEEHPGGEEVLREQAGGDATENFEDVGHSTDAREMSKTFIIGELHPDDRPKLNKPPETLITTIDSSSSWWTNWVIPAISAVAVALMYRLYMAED

sPIF-1(15) (peptide) gave a % Coverage of the unique peptides observed [1] of 55%, a % Coverage of the unique peptides observed [2] of 48% and a % Coverage of the unique peptides observed [3] of 47%. It also gave a % Coverage of the unique peptides observed [4] of 53%, a % Coverage of the unique peptides observed [5] of 46% and a % Coverage of the unique peptides observed [6] of 63%. For the same substance, the % Coverage of the unique peptides observed [7] was 47%, the % Coverage of the unique peptides observed [8] was 45% and the % Coverage of the unique peptides observed [9] was 60%. For the same substance, the % Coverage of the unique peptides observed [10] was 57%, the % Coverage of the unique peptides observed [11] was 52% and the % Coverage of the unique peptides observed (Vimentin (Homo sapiens) [12]) was 50%. It also gave a % Coverage of the unique peptides observed [13] of 71%, a % Coverage of the unique peptides observed [14] of 51% and a % Coverage of the unique peptides observed [15] of 44%. The % Coverage of the unique peptides observed [16] was 53%, the % Coverage of the unique peptides observed [17] was 54% and the % Coverage of the unique peptides observed [18] was 52%. For the same substance, the % Coverage of the unique peptides observed [19] was 45%, the % Coverage of the unique peptides observed [20] was 46% and the % Coverage of the unique peptides observed [21] was 69%. The % Coverage of the unique peptides observed [22] was 53%, the % Coverage of the unique peptides observed [23] was 56% and the % Coverage of the unique peptides observed [24] was 34%. For the same substance, the % Coverage of the unique peptides observed [25] was 49%, the % Coverage of the unique peptides observed [26] was 45% and the % Coverage of the unique peptides observed [27] was 42%. It also gave a % Coverage of the unique peptides observed [28] of 56%, a % Coverage of the unique peptides observed [29] of 46% and a % Coverage of the unique peptides observed [30] of 48%. For the same substance, the % Coverage of the unique peptides observed [31] was 58%, the % Coverage of the unique peptides observed [32] was 76% and the % Coverage of the unique peptides observed [33] was 44%. The % Coverage of the unique peptides observed [34] was 52%, the % Coverage of the unique peptides observed [35] was 51% and the % Coverage of the unique peptides observed [36] was 48%. The % Coverage of the unique peptides observed (Vimentin (Homo sapiens) [37]) was 49%.
